Test results taken from patent US20160369008A1 (Astellas, published 2016).

Key:
[1] = target: recombinant active human PAI-1 (human, UniProt P05121 24-402); assay: cell-based or functional assay
[2] = target: T1, active human PAI-1 in complex with vitronectin (human, UniProt P05121 24-402; P04004 20-478); assay: ELISA, VTN-PAI-1 complex on the plate
T1 construct: Vitronectin was coated on the plate and active PAI-1 was captured on it; also called VTN-PAI-1 complex; VTN-PAI-1
Method: An HRP-labeled goat anti-mouse Ig antibody (Southern Biotech, 1010-05) for the detection of a test antibody having an Fe region of a mouse antibody and an HRP-labeled rabbit anti-human Ig antibody (Southern Biotech, 6145-05) for the detection of a test antibody having an Fc region of a human antibody are used as the detection antibody. After incubation at room temperature for 30 minutes, the plates were washed three times with a washing solution. A color developing solution contained in a peroxidase color development kit (Sumitomo Bakelite Co., Ltd.) was added at 100 μL/well, followed by allowing to stand at room temperature for about 15 minutes, 100 μL of a reaction stop solution contained in the color development kit was added, and then the OD450 value was measured using an EnVision counter (PerkinElmer Co., Ltd.).
For each plate, the test of each antibody was carried out in duplicate, and the average value was calculated. In connection with the calculation of a PAI-1 binding rate at each concentration of each antibody, the measurement value of a well to which 0.1% BSA-containing PBS had been added instead of an antibody was taken to be 0%, and the measurement value of the maximum concentration in each antibody was set to 100%. […] The calculated PAI-1 binding rate was analyzed to calculate EC50 values of the antibodies by four-parameter logistic curve regression.

[3] = target: active monkey PAI-1 in complex with vitronectin (monkey); assay: ELISA, VTN-monkey PAI-1 complex on the plate
active monkey PAI-1 in complex with vitronectin (monkey), sequence (P04004 20-478, one chain of several): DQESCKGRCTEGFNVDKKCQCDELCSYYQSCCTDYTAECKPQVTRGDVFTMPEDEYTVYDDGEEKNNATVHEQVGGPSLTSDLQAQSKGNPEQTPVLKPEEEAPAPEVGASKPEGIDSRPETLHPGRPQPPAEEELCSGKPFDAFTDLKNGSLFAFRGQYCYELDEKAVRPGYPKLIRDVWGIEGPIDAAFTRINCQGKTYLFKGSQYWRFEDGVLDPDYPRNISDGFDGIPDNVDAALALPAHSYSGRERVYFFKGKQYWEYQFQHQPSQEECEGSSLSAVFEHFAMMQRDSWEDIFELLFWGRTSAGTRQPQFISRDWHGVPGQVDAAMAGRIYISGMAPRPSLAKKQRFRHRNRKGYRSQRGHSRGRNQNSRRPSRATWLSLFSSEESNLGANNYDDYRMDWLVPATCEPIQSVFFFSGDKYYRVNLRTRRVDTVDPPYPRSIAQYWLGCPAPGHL

[4] = target: T2, active PAI-1 in human plasma (human, UniProt P05121 24-402); assay: ELISA: inhibition of the capture of active PAI-1 of human plasma on immobilised uPA
T2 construct: Native protein in diluted plasma; also called human plasma-derived active PAI-1; active human PAI-1 in the plasma
Method: After the blocking agent in the assay plate was removed by reverse centrifugation, the pre-incubated plasma-antibody mixtures, the calibration curve sample, and the control sample were added at 100 μL/well to the assay plate which was then allowed to stand at room temperature for 30 minutes. The plate was washed three times with a washing solution (0.05% Tween-20-containing TBS), and anti-PAI-1 antibodies (Progen Biotechnik, MA-33H1F7) diluted 3,000-fold with a blocking agent (NACALAI TESQUE, INC., 03953-95) solution which had been diluted 20-fold in PBS were added thereto at 100 μL/well. […] An alkaline phosphatase substrate (Chemiluminescent AP; SurModics, APU4-0100-01) 5-fold diluted in a 0.1 mM magnesium chloride aqueous solution containing 2 mM Tris (pH 9.8) was added at 100 μL/well, and the signal value was measured using an EnVision counter (PerkinElmer Co., Ltd.).
The concentration of active human PAI-1 was calculated using a calibration curve. The test was carried out in duplicate for each antibody, and the average value was calculated. […] The calculated active human PAI-1 inhibitory rate was analyzed to calculate IC50 values of the antibodies by four-parameter logistic curve regression.

[5] = target: T2, active PAI-1 in human plasma; assay: ELISA: inhibition of the capture of active PAI-1 of human plasma on immobilised uPA (Example 9)
Method: (§1) The evaluation of an inhibitory activity on active PAI-1 in human plasma was carried out according to the method of Example 5. The evaluation of an inhibitory activity on active PAI-1 in monkey plasma was carried out using monkey plasma instead of human plasma in the method described in Example 5. With regard to the monkey plasma, the plasma was diluted using 0.1% BSA-containing PBS, such that the monkey plasma was diluted 120-fold when a plasma-antibody mixture was prepared. For both of two evaluation systems, the final concentration of each antibody was used in a range from 300 ng/mL to 0.3 ng/mL (7-step dilution). As a calibration curve sample, recombinant active human PAI-1 (Molecular Innovations Inc., PAI-A) was used which had been diluted in 7 steps in a range from 3000 pg/mL to 3 pg/mL with 0.1% BSA-containing PBS.
(§2) The concentration of each active PAI-1 was calculated using a calibration curve. The test was carried out in duplicate for each antibody, and the average value was calculated. […] Each of the calculated active PAI-1 inhibitory rates was analyzed to calculate IC50 values of the antibodies by four-parameter logistic curve regression.

[6] = target: T3, active PAI-1 in monkey plasma (cynomolgus monkey, UniProt G7P138 24-402); assay: ELISA: inhibition of the capture of active PAI-1 of monkey plasma on immobilised uPA (Example 9)
T3 construct: Native protein in diluted plasma
Method: as §1, §2

[7] = target: T4, human PAI-1 in complex with tPA (human, UniProt P05121 24-402; P00750 36-562); assay: ELISA, tPA-PAI-1 complex on the plate
T4 construct: tPA was coated on the plate and active PAI-1 was captured on it; also called tPA-PAI-1 complex; Human tPA-PAI-1

[8] = target: T5, human PAI-1 in complex with uPA (human, UniProt P05121 24-402; P00749 21-431, limits assumed); assay: ELISA, uPA-PAI-1 complex on the plate
T5 construct: uPA was coated on the plate and active PAI-1 was captured on it; also called uPA-PAI-1 complex; Human uPA-PAI-1

latent human PAI-1 = target: T6, latent human PAI-1 (human, UniProt P05121 24-402); assay: ELISA, latent human PAI-1 on the plate
T6 construct: Same protein as active PAI-1 but in the latent conformation; also called recombinant latent human PAI-1; latent PAI-1

[9] = target: T1, active human PAI-1 in complex with …; assay: ELISA, VTN-PAI-1 complex on the plate; 100% set to the signal of MA56-A7C10 at its maximum concentration

B1: fully human HOT-1 (antibody, human IgG1, kappa, V domains shown)
VH: EVQLVESGGGVVRPGGSLRLSCAASGFTFDDHGMTWVRQAPGKGLEWVSGINWNGARTVYADSVKGRFTISRDNAKNSLYLHLISLRAEDTALYHCARDRGLGLFDYWGQGTLVTVSS
VL: DIQMTQSPSTLSASVGDRVTITCRASQSISSWLAWYQQKPGKVPKILIYKASRLESGVPSRISGSGSGTEFTLTISSLQPDDFATYYCQQYNGYSYTFGQGTKLEIKR
notes: Human Ig gamma1 / human kappa constant regions; also called fully human antibody of HOT-1; fully human HOT-1 antibody
EC50 value, taking the activity of uPA as an indicator (cleavage of a fluorogenic uPA substrate peptide) [1]: 12.7 ng/mL | EC50 [2]: 4.2 ng/mL | EC50 [3]: 3.6 ng/mL | IC50 [4]: 6 ng/mL | IC50 [5]: 4.2 ng/mL | IC50 [6]: 0.037 µg/mL

B2: MA-33H1F7 (antibody, V domains shown)
VH: QVQLQQSGAEVVKPGASVKLACTASGFNIKDTYIHWVKQGPEQGLEWIGRIDPANGNTKYDSKFQDKATITADTSSNTAYLHLSSLTSEDTAVYYCVRGDYDYVYFDYWGQGTTVTVSS
VL: DIQMTQSPSSLSASLGDRVTISCRASQDISNFLDWYQQKPDGTVKLLIYYTSRLHSGVPSRFSGSGSGTDYSLTISKLEQEDIATYFCQQGNTFPPTFGGGTKLEIK
EC50 [2]: 14.3 ng/mL | EC50 [7]: 0.0117 µg/mL | EC50 [8]: 0.0127 µg/mL | EC50 (latent human PAI-1): 0.0136 µg/mL

B3: MA-33B8 (antibody, V domains shown)
VH: not shown
VL: DIVMTQSPSSLAVSVGEKVTMSCKSSQSLLNIIKQKNCLAWYQQKPGQSPKLLIYWASTRESGVPDRFTGSGSGTDFTLTISSVKAEDLAVYYCQQYYSYPYTFGGGTKLEIK
EC50 [7]: 0.0228 µg/mL | EC50 [8]: 0.0129 µg/mL | EC50 (latent human PAI-1): 0.64 µg/mL | EC50 [9]: 5.68 µg/mL

B4: HOT-1 (chimeric antibody) (antibody, V domains shown)
VH: EVQLVESGGGVVRPGGSLRLSCAASGFTFDDHGMTWVRQAPGKGLEWVSGINWNGARTVYADSVKGRFTISRDNAKNSLYLHLISLRAEDTALYHCARDRGLGLFDYWGQGTLVTVSS
VL: DIQMTQSPSTLSASVGDRVTITCRASQSISSWLAWYQQKPGKVPKILIYKASRLESGVPSRISGSGSGTEFTLTISSLQPDDFATYYCQQYNGYSYTFGQGTKLEIKR
IC50 [4]: 11.3 ng/mL
